Measurements as given in patent publication US20050118729A1 (published 2005).

Biological target: T1, α4β1 integrin expressed on Jurkat cells (human, UniProt P13612 34-1032; P05556 21-798)
T1 construct: whole, on cells; Cells labeled with a fluorescent dye (Cyto 82); also called receptor recognizing the CS1 peptide
Experiment: cell adhesion of labeled Jurkat cells on microarray
Method: Jurkat T-cells, a human leukemia line, were grown under the appropriate growing conditions. Shortly before the adherence assay, cells were washed with 5 mM EDTA in Tris-buffered saline (TBS, 10 mM Tris-HCl, pH 7.4, 150 mM NaCl) and then incubated with Cyto 82 (2 μM final concentration) for 30 min under continuous agitation. Labeled cells were washed twice with the same buffer and applied directly on the fabricated microarray slides.
The model of interaction chosen for this purpose was α4β1-CS1-interaction model. α4β1 is an integrin expressed by several types of adherent cells and can mediate cell matrix contact trough the known ligand fibronectin. […] The slides were washed extensively and the interaction was scanned by the microarray scanner (FIG. 10).

T1 sequence (P13612 34-1032, chain 1 of 2): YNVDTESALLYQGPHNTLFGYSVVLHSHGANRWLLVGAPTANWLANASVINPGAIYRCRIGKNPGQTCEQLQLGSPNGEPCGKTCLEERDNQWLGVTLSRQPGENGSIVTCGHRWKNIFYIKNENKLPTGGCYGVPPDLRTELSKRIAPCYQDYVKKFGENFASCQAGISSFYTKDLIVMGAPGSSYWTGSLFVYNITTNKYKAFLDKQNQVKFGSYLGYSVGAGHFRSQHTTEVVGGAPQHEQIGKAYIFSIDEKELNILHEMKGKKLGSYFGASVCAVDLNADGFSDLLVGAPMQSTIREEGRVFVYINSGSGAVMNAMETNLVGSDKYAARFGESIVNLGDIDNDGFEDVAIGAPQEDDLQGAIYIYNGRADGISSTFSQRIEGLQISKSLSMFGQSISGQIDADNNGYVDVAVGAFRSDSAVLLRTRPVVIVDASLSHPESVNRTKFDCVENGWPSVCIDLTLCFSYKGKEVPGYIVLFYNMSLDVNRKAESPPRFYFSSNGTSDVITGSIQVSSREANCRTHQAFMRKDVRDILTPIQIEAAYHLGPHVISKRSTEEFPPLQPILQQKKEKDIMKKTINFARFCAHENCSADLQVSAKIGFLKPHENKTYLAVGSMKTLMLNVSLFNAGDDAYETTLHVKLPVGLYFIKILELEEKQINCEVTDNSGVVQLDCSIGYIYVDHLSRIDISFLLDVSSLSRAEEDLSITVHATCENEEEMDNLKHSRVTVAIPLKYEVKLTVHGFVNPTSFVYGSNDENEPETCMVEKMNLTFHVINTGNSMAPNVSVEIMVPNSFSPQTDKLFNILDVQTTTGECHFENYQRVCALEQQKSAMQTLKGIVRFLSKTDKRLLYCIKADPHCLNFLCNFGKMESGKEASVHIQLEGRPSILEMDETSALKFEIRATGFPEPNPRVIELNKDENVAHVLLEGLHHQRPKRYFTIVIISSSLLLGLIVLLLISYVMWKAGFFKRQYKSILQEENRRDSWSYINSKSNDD
T1 sequence (P05556 21-798, chain 2 of 2): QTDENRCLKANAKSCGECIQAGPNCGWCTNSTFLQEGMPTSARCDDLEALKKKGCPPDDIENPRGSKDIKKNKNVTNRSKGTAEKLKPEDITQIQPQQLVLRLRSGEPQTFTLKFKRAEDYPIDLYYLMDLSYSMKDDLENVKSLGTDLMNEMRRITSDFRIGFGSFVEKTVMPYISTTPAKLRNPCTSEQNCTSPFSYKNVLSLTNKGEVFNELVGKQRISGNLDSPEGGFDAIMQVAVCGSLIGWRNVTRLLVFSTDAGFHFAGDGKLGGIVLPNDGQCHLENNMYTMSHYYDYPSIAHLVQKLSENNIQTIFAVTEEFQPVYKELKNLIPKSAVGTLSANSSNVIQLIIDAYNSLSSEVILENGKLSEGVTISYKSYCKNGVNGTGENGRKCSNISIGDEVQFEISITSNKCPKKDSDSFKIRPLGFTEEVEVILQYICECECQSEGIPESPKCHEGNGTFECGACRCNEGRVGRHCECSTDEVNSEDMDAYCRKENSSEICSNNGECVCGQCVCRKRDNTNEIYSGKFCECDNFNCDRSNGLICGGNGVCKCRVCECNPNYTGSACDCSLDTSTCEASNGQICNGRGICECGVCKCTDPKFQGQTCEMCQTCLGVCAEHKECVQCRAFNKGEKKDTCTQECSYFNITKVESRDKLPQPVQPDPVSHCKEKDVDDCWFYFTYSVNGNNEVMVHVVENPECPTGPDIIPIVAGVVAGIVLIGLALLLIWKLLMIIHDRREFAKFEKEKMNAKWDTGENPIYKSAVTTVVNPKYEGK

B1: recombinant protein comprising the cellulose binding region of SEQ ID NO 4 (cellulose binding recombinant protein of Example 1) (other)
chain: NATPTKGATPTNTATPTKSATATPTRPSVPTNTPTNTPANTPVSGNLKVEFYNSNPSDTTNSINPQFKVTNTGSSAIDLSKLTLRYYYTVDGQKDQTFWCDHAAIIGSNGSYNGITSNVKGTFVKMSSSTNNADTYLEISFTGGTLEPGAHVQIQGRFAKNDWSNYTQSNDYSFKSASQFVEWDQVTAYLNGVLVWGKEPGGSVVPSTQPVTTPPATTKPPATTKPPATTIPPSDDPNA
binding result: no binding (tested: highest array concentration)
